From patent publication US20230220042A1 (SHANGHAI JIAO TONG UNIVERSITY SCHOOL OF MEDICINE, published 2023) come the findings set out here.

The target in assay [1] is Biotin-FcγRIIB (human) (UniProt P31994). In words: NGS of 3T3 display library IgG2_C01 flow-sorted for FcγRIIB binding.
Assay [2] shares this target. In words: NGS of 3T3 display library Cmix flow-sorted for FcγRIIB binding.
For assay [3] the target is unchanged. In words: NGS of 3T3 display library IgG2_C02 flow-sorted for FcγRIIB binding.
The target is the same in assay [4]. In words: NGS of 3T3 display library C2 flow-sorted for FcγRIIB binding.
Assay [5] has the same target. In words: magnetic sorting on biotin-FcγRIIB with unlabelled activating FcγRs, NGS; Library2.
The target is the same in assay [6]. In words: magnetic sorting on biotin-FcγRIIB with unlabelled activating FcγRs, NGS; Library4.
The target is the same in assay [7]. In words: magnetic sorting on biotin-FcγRIIB with unlabelled activating FcγRs, NGS; LibraryMix #4.
The target is the same in assay [8]. In words: magnetic sorting on biotin-FcγRIIB with unlabelled activating FcγRs, NGS; LibraryMix #3.
In assay [9] the target is Biotin-FcγRIIB (human FcγRIIB, Sino Biological) (human) (UniProt P31994). In words: NGS after FACS sort of 3T3-displayed LibraryMix for biotin-FcγRIIB binding.
Assay [10] addresses T1, Biotin-FcγRIIB (human, UniProt P31994 43-217, limits assumed, biotin-labelled).
T1 construct: Bought, biotin-labelled; used at 1 µg/ml for staining and sorting; also called human FcγRIIB; CD32b
T1 sequence (looked up): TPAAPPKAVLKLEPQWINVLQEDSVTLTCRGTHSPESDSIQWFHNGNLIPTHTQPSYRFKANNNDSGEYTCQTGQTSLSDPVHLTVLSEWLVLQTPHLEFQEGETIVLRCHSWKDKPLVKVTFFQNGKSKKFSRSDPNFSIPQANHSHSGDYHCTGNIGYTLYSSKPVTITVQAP
In words: FACS sorting of displayed Fc library on biotin-FcγRIIB, NGS.

The target of assay [11] is T1, Biotin-FcγRIIB. In words: FACS sorting of displayed Fc library on biotin-FcγRIIB, NGS; reference S298R.

As for “human IgG2 anti-mouse CD40 surface displayed antibody, wild-type Fc”, in the assay with Biotin-FcγRIIB (human) [1], the percentage after 1st sorting was found to be 61.6%, the percentage after 2nd sorting came to 54.2% and the percentage before sorting was 63.8%. In the assay with Biotin-FcγRIIB (human) [2], the percentage after 1st sorting was determined as 1.32%, the percentage after 2nd sorting came to 1.03%, the percentage after 3rd sorting stood at 0.4% and the percentage before sorting is 1.07%. In addition, in the assay with Biotin-FcγRIIB (human) [3], the percentage after 1st sorting turned out to be 58.4%, the percentage after 2nd sorting came out at 47.8% and the percentage before sorting was determined as 56.6%. In the assay with Biotin-FcγRIIB (human) [4], this molecule had a percentage after 1st sorting of 2.51%, a percentage after 2nd sorting of 5.25%, a percentage after 3rd sorting of 12.6% and a percentage before sorting of 8.97%.
For the molecule “human IgG2 anti-mouse CD40 surface displayed antibody (wild-type IgG2 Fc)”, the Enrichment factor (percentage after sorting/percentage before sorting) with Biotin-FcγRIIB (human) [5] was 0.83; in the assay with Biotin-FcγRIIB (human) [6] it was 0.88; with Biotin-FcγRIIB (human) [7] it was 0.94; in the assay with Biotin-FcγRIIB (human) [8], 1.13. Also, the Percentage after sorting/unbinding percentage with Biotin-FcγRIIB (human) [5] is 0.58; with Biotin-FcγRIIB (human) [6], 0.85; in the assay with Biotin-FcγRIIB (human) [7] it was 0.95; with Biotin-FcγRIIB (human) [8] it was 1.06. Besides, the Percentage before sorting/unbinding percentage in the assay with Biotin-FcγRIIB (human) [5] was determined as 0.7; in the assay with Biotin-FcγRIIB (human) [6] it was 0.97; with Biotin-FcγRIIB (human) [7], 1.01; with Biotin-FcγRIIB (human) [8] it was 0.94.
For the molecule “human IgG2 anti-mouse CD40 surface displayed antibody, P271G/G236V”, in [9], the Enrichment factor (percentage after sorting/percentage before sorting) is 10.3 and the Increased factor (enrichment factor/wild-type enrichment factor) came to 13.7.

B1: human IgG2 anti-mouse CD40 surface displayed antibody, Fc mutant P271A/S298R (antibody, name in EU numbering)
light chain (with the P2A rest): DTVLTQSPALAVSPGERVTISCRASDSVSTLMHWYQQKPGQQPKLLIYLASHLESGVPARFSGSGSGTDFTLTIDPVEADDTATYYCQQSWNDPWTFGGGTKLELKRTVAAPSVFIFPPSDEQLKSGTASVVCLLNNFYPREAKVQWKVDNALQSGNSQESVTEQDSKDSTYSLSSTLTLSKADYEKHKVYACEVTHQGLSSPVTKSFNRGECGSGATNFSLLKQAGDVEENPG
heavy chain: EVQLVESDGGLVQPGRSLKLPCAASGFTFSDYYMAWVRQAPTKGLEWVASISYDGSSTYYRDSVKGRFTISRDNAKSTLYLQMDSLRSEDTATYYCGRHSSYFDYWGQGVMVTVSSASTKGPSVFPLAPCSRSTSESTAALGCLVKDYFPEPVTVSWNSGALTSGVHTFPAVLQSSGLYSLSSVVTVPSSNFGTQTYTCNVDHKPSNTKVDKTVERKCCVECPPCPAPPVAGPSVFLFPPKPKDTLMISRTPEVTCVVVDVSHEDAEVQFNWYVDGVEVHNAKTKPREEQFNRTFRVVSVLTVVHQDWLNGKEYKCKVSNKGLPAPIEKTISKTKGQPREPQVYTLPPSREEMTKNQVSLTCLVKGFYPSDIAVEWESNGQPENNYKTTPPMLDSDGSFFLYSKLTVDKSRWQQGNVFSCSVMHEALHNHYTQKSLSLSPGKLEPPPSTVSNMATVAVLVVLGAAIVTGAVVAFVMKMRRRNTGGKGGDYALAPGSQTSDLSLPDCKVMVHDPHSLA
notes: as m1; positions are Eu numbers; copies: 2 + 2
For the molecule B1, in the assay with Biotin-FcγRIIB [10], the “Enrichment factor (after/before sorting)” value worked out at 2.45 and the “Increased factor a (enrichment factor/wild-type enrichment factor)” value worked out at 3.27. The “Increased factor 2 c Site 2 (combined/point mutation)” value with Biotin-FcγRIIB [11] was 4.2.
